# From patent publication US20050182242A1, “Global analysis of protein activities using proteome chips” (priority 2001, published 2005)
# B1: SUN4: yeast GST-HisX6 fusion protein on proteome chip (protein, UniProt P53616 25-420, looked up)
# Probable secreted …: YAADIDTGCTTTAHGSHQHKRAVAVTYVYETVTVDKNGQTVTPTSTEASSTVASTTTLISESSVTKSSSKVASSSESTEQIATTSSSAQTTLTSSETSTSESSVPISTSGSASTSSAASSATGSIYGDLADFSGPYEKFEDGTIPCGQFPSGQGVIPISWLDEGGWSGVENTDTSTGGSCKEGSYCSYACQPGMSKTQWPSDQPSDGRSIGGLLCKDGYLYRSNTDTDYLCEWGVDAAYVVSELSNDVAICRTDYPGTENMVIPTYVQAGDSLPLTVVDQDTYYTWQGLKTSAQYYVNNAGISVEDACVWGSSSSGVGNWAPLNFGAGSSDGVAYLSLIPNPNNGNALNFNVKIVAADDSSTVNGECIYENGSFSGGSDGCTVSVTAGKAKFVLYN
# modifications: GST-His6 tag
# notes: yeast GST-HisX6 fusion protein on proteome chip
# B2: WRS1: yeast GST-HisX6 fusion protein on proteome chip (protein, UniProt Q12109 1-432, looked up)
# Tryptophan--tRNA ligase, …: MSNDETVEKVTQQVSELKSTDVKEQVVTPWDVEGGVDEQGRAQNIDYDKLIKQFGTKPVNEETLKRFKQVTGREPHHFLRKGLFFSERDFTKILDLYEQGKPFFLYTGRGPSSDSMHLGHMIPFVFTKWLQEVFDVPLVIELTDDEKFLFKHKLTINDVKNFARENAKDIIAVGFDPKNTFIFSDLQYMGGAFYETVVRVSRQITGSTAKAVFGFNDSDCIGKFHFASIQIATAFPSSFPNVLGLPDKTPCLIPCAIDQDPYFRVCRDVADKLKYSKPALLHSRFFPALQGSTTKMSASDDTTAIFMTDTPKQIQKKINKYAFSGGQVSADLHRELGGNPDVDVAYQYLSFFKDDDVFLKECYDKYKSGELLSGEMKKLCIETLQEFVKAFQERRAQVDEETLDKFMVPHKLVWGEKERLVAPKPKTKQEKK
# modifications: GST-HisX6 tag
# notes: as for B1
# B3: DPS1: yeast GST-HisX6 fusion protein on proteome chip (protein, UniProt P04802 2-557, looked up)
# Aspartate--tRNA ligase, …: SQDENIVKAVEESAEPAQVILGEDGKPLSKKALKKLQKEQEKQRKKEERALQLEAEREAREKKAAAEDTAKDNYGKLPLIQSRDSDRTGQKRVKFVDLDEAKDSDKEVLFRARVHNTRQQGATLAFLTLRQQASLIQGLVKANKEGTISKNMVKWAGSLNLESIVLVRGIVKKVDEPIKSATVQNLEIHITKIYTISETPEALPILLEDASRSEAEAEAAGLPVVNLDTRLDYRVIDLRTVTNQAIFRIQAGVCELFREYLATKKFTEVHTPKLLGAPSEGGSSVFEVTYFKGKAYLAQSPQFNKQQLIVADFERVYEIGPVFRAENSNTHRHMTEFTGLDMEMAFEEHYHEVLDTLSELFVFIFSELPKRFAHEIELVRKQYPVEEFKLPKDGKMVRLTYKEGIEMLRAAGKEIGDFEDLSTENEKFLGKLVRDKYDTDFYILDKFPLEIRPFYTMPDPANPKYSNSYDFFMRGEEILSGAQRIHDHALLQERMKAHGLSPEDPGLKDYCDGFSYGCPPHAGGGIGLERVVMFYLDLKNIRRASLFPRDPKRLRP
# modifications: GST-His6 fusion tag
# notes: as for B1
# B4: PKR1: yeast GST-HisX6 fusion protein on proteome chip (protein, UniProt Q03880 1-122, looked up)
# V-type ATPase assembly factor …: MANFFVRLWESVFEPGTSPQLIIATHVSFVALLLTLIWLIYATNGNIHFYALFCISLLLWITVIWFINELSHVKLKDNDELDKDANKKDDSAIKEDSEDKQESGKSTSTARRTQAQSRSRKA
# modifications: GST-His6 tag
# notes: as for B1
# B5: SXM1: yeast GST-HisX6 fusion protein on proteome chip (protein, UniProt Q04175 1-944, looked up)
# Importin beta SMX1: MVQEQAILSCIEQTMVADAKIIKEAEQQLFEFQKQPGFTSFLLNIVSDDNFALNVRLSSAIYLKNKIHRSWDTKREDGIKADEKLSIKERLIETLVKNCENNHIRPILTETINGILVGQEDWDLAPIIKNLLSSGDASYIYPGLLLLFQLCKAHRWDMVGSRDYIDSVIEELFPIVEGIASNIGSQTDYRSNEILYLILKSFKYACLNNLPQYFSQPERIMSWVQLHLYLCSKPLPVEVMELDPADRSLDKRVKVNKWGFGNLNRFLQRYNKITKAITKEFIDYIFNTIVPIILREFFKDIEAWGNNSLWLSDSSLYFLISFLEKCVTIDQLYPLIEPHLQIIFENVIFPCLCANEQSIELLEDDQEEYTRRYFDINREGSTPDAASADFIFLIGSKRPEKLNNILPFINDIFTRFDANSSDINMAFKEEGALRTLSNLFSFIDEPSVLENIFGHFIVPLLSQDKYMFLVARSLETIALYSEEFKDMNILSQLFELTYTNFLNSNVLPVQIEAADAIKCLIVSNPQIHPAVSAHVPGMMEKLLKLSKIFEIDILSEVMEALVERFSDELSPFAKDLASNLVEQFLRIAQALVENPSETYSASDQEQEIQASGLLQTMTTMVMSMNKVPLIESLAPVVKFVVLHAQISFITEAVDLLDALTISSHLLYNQIAPPIWELLHDILDSFQTYAMDYFEAYSIFFETIVMTGFPQDQTYVQPLLEILSAKLESEVDYDIEHVMQILMYFALSMRDIPLFSKAIKVSTNDELGLDSKCIVKLGLANLFAKPIETLQIMENEGFTINFFTNWFNEKFYSVFAIKLQVLVILTLLKMPEVPNSVSPLLNNLTNKLVELTLSLPKAIRNRDAVTEGKSLEGDLTPEEEEEYFIECDDDMKETVLDQINVFQEVHTFFKNLQNEDAGKYEKIINYLDESKRDSLQVILEFVSQH
# modifications: GST-His6 tag
# notes: as for B1
# Key:
# Conditions in all cases: liposome binding signal on yeast proteome chip, Cy3-streptavidin detection
# [1] = system: phosphatidylcholine (PC) liposomes; assay: Yeast proteome chip probed with PC liposomes
# Text: (§1) To identify PI-binding proteins in yeast, liposomes were used as probes because the liposome provides the most relevant physiological condition to assay the interactors. Six types of liposomes were used. Each contains phosphatidylcholine (“PC”) with 1% (w/w) N-(biotinoyl)-1,2-dihexadecanoyl-sn-glycero-3-phosphoethanolamine, triethylammonium salt (biotin DHPE). The biotinylated lipid serves as a label that can be detected by Cy3-streptavidin (21). In addition to PC, the five other liposomes contain either 5% (w/w) PI(3)P, PI(4)P, PI(3,4)P2, PI(4,5)P2, or PI(3,4,5)P3 (FIG. 3A).
# (§2) The protein-liposome interaction was assayed as follows. Appropriate amounts of each lipid in chloroform were mixed and dried under nitrogen. The lipid mixture was resuspended in TBS buffer by vortexing. The liposomes were created by sonication. Blocked proteome chips were washed three to five times in PBS buffer, and the extra liquid on the glass surface was removed by tapping the slides vertically on a KIMWIPE™. 200 μl of liposome solution was added to the proteome chip and immediately covered by a hydrophobic plastic cover slip (GRACE BIO-LAB™, USA). After trapped air bubbles were removed, the chip was incubated in a humidity chamber at RT for one hour. To remove the cover slip, the chip was immersed into large volume of PBS buffer (50 ml), so that the slip would float away. The chip was then moved to a second PBS bath (>50 ml) and washed 3×5 min with shaking at RT. After removing extra liquid on the surface of the chip, about 100 μl of Cy3 or Cy5 conjugated streptavidin (PIERCE™, USA; 1:2000 to 1:4000 dilution) was added to the surface and covered by a hydrophobic plastic cover slip (GRACE BIO-LABS™, USA). The chip was incubated for greater than 30 min in the dark at RT. The chip was then washed as described above. To completely remove the liquid on the chip, the chip was spun to dryness at 1500-2000 rpm for 5-10 min at RT.
# (§3) • 1. S. Fields, Y. Kohara, D. J. Lockhart, Proc. Natl. Acad. Sci. 96, 8825 (1999); A. Goffeau et al., Science 274, 563 (1996). • 2 P. Ross-Macdonald et al., Nature 402, 413 (1999); J. L., DeRisi, V. R. Iyer, P. O. Brown, Science 278, 680 (1997); E. A. Winzeler et al., Science 285, 901 (1999). P. Uetz et al., Nature 403, 623 (2000); T. Ito et al., Proc. Natl. Acad. Sci. USA. 97, 1143 (2000) • 3 H. Zhu, M. Snyder, Curr. Opin. Chem. Biol. 5, 40 (2001). • 4 M. R. Martzen et al., Science 286, 1153 (1999). • 5 H. Zhu et al., Nat. Genet. 26, 283 (2000). • 6 G. MacBeath, S. L. Schreiber, Science 289, 1760 (2000). • 7 A. Caveman, J. Cell Sci. 113, 3543 (2000). • 8 P. Arenkov et al., Anal. Biochem 278, 123 (2000). • 9 D. A. Mitchell, T. K. Marshall, R. J. Deschenes, Yeast 9, 715 (1993). The expression vector pEGH was created by inserting an RGS-HisX6 epitope tag between the GST gene and the polycloning site of pEG(KG). The yeast ORFs were cloned using the strategy described previously (5), except every step was done in a 96-well format. Plasmid DNAs confirmed by DNA sequencing were reintroduced into both yeast (Y258) and E. coli (DH5a). […] 0.1 mM calcium was present in buffers in all subsequent steps. The chip was washed three times with PBS at RT. Cy3-conjugated streptavidin (Jackson IR, USA) (1:5000 dilution) was added to the chip and incubated for 30 min at RT. After extensive washing, the chip was spun dry and scanned using a microarray scanner; the data was subsequently acquired with the GENEPIX™ array densitometry software (Axon, USA). • 12 S. S. Hook, A. R. Means, Annu. Rev. Pharmacol. Toxicol.41, 471 (2001). • 13 M. S. Cyert, R. Kunisawa, D. Kaim, J. Thorner, Proc. Natl. Acad. Sci. USA 88, 7376 (1991). • 14 D. A. Stirling, K. A. Welch, M. J. Stark, EMBO J. 13, 4329 (1994). • 15 F. Bohl, Kruse, EMBO J. 19, 5514 (2000); E. Bertrand et al., Mol. Cell 2, 437 (1998). • 16 D. C. Winter, E. Y. Choe, R. Li, Proc. Nat. Acad Sci. USA 96, 7288 (1999). • 17 C.
# [2] = system: PI(4,5)P2 liposomes; assay: Yeast proteome chip probed with PI(4,5)P2 liposomes
# Text: as §1, §2, §3
# [3] = system: PI(3,4)P2 liposomes; assay: Yeast proteome chip probed with PI(3,4)P2 liposomes
# Text: as §1, §2, §3
# [4] = system: PI(3,4,5)P3 liposomes; assay: Yeast proteome chip probed with PI(3,4,5)P3 liposomes
# Text: as §1, §2, §3
# [5] = system: PI(4)P liposomes; assay: Yeast proteome chip probed with PI(4)P liposomes
# Text: as §1, §2, §3
Molecule,PC [1],"PI(4, 5)P2 [2]","PI(3, 4)P2 [3]","PI(3, 4, 5)P3 [4]",PI(4)P [5]
B1,69.55,66.41,20.88,33.19,60.75
B2,62.51,21.56,63.10,51.08,4.57
B3,62.22,41.81,25.12,13.05,99.29
B4,61.63,87.75,37.52,15.75,61.40
B5,51.95,27.22,19.15,23.40,30.48
